Test results: patent US20120052069A1

Molecular target: β-Klotho overexpressed in recombinant human 293T kidney cells
Experiment: cell-based or functional assay

EC50 (nM), ELK luciferase assay | Efficacy, ELK luciferase assay | Substance
834 nM | 83.1% | MKEDD-hFGF21-(L15)-hFc (Fc fusion)
167 nM | 63.9% | hFc-(L15)-hFGF21(1-178, L98R, P171G) (Fc fusion)
617 nM | 77.1% | hFc-(L15)-hFGF21(L98R, P171G, A180P) (Fc fusion)
4310 nM | 99.7% | hFc-(L15)-hFGF21(L98R, P171G, GGGGG182-6) (Fc fusion)
2.66 nM | 73.5% | hFc-(L15)-hFGF21(L98R, P171G, S181A) (Fc fusion)
3.46 nM | 72.6% | hFc-(L15)-hFGF21(L98R, P171G, S181L) (Fc fusion)
61 nM | 82.6% | hFc-(L15)-hFGF21(L98R, P171G, Y179G) (Fc fusion)
428 nM | 44.4% | hFc-(L15)-hFGF21(L98R, P171G, Y179P) (Fc fusion)

Further lines, the substance ahead of its results:

Substance | EC50 (nM), ELK luciferase assay | Efficacy, ELK luciferase assay
hFc-(L15)-hFGF21(L98R, P171G, 1-179) (Fc fusion) | 7.8 nM | 77.4%
hFc-(L15)-hFGF21(L98R, P171G, S181G) (Fc fusion) | 3.43 nM | 77.3%
hFc-(L15)-hFGF21(L98R, P171G, S181K) (Fc fusion) | 130 nM | 87.9%
hFc-(L15)-hFGF21(L98R, P171G, S181P) (Fc fusion) | 33.8 nM | 79.5%
hFc-(L15)-hFGF21(L98R, P171G, S181P, P182) (Fc fusion) | 272 nM | 69.9%
hFc-(L15)-hFGF21(L98R, P171G, S181T) (Fc fusion) | 3.07 nM | 77.6%
